# Test results reported in patent US7354734B2, “Fungal proteins and nucleic acids encoding same” (priority 2003, dated 2008).
# Entries after “also recorded” stand apart in the source; their conditions may differ. Read-outs that look alike come from different tables or passages of the source.
# T1: pkLAP (microsomal LAP from porcine kidney) (Sus scrofa, UniProt P15145)
# T1 construct: purchased Sigma; host or cells: porcine kidney
# T1 sequence (P15145 1-963): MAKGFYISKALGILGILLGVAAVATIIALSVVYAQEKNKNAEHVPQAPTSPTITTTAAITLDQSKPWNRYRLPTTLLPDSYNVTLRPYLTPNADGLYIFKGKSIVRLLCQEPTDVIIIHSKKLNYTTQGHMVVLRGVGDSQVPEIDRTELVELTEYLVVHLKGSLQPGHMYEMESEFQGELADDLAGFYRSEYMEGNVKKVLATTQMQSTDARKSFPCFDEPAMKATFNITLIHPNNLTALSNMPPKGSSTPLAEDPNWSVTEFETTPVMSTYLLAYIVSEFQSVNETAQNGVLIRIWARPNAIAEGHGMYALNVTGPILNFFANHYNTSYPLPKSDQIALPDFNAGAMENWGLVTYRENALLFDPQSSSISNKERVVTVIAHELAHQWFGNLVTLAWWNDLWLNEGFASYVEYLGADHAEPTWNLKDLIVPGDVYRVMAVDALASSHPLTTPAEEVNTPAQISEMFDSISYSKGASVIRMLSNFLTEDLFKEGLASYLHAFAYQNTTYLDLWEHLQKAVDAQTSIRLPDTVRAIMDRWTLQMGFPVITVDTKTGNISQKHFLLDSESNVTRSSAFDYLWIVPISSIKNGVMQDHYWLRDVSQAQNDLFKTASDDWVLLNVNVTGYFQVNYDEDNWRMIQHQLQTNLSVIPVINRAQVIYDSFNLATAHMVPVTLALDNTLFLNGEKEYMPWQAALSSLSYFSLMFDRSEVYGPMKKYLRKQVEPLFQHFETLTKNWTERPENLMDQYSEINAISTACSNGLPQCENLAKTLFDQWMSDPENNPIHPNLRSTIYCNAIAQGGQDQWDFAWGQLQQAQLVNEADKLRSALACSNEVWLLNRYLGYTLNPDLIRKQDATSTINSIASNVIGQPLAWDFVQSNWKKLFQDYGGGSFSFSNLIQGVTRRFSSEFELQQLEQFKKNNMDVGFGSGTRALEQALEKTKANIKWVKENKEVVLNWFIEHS
# What was measured:
# ruLAP1 = ruLAP1 (Trichophyton rubrum, UniProt Q5QHG5); assay type: biochemical
# ruLAP1, sequence (Q5QHG5 21-373): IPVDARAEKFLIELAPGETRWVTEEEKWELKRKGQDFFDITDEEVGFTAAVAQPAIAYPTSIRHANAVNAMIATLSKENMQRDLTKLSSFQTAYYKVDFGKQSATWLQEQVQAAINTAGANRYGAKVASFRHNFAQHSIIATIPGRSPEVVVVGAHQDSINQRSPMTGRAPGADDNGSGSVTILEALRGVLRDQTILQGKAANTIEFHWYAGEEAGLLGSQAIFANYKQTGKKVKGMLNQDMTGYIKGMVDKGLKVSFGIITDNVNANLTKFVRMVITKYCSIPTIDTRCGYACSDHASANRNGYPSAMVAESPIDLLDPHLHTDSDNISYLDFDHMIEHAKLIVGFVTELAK
# fuLAP2 = assay type: biochemical, Aspergillus fumigatus; conditions: for effect of inhibitor on fuLAP2 activity: Leu-AMC 5 mM
# [1] = target: T1, pkLAP (microsomal LAP from porcine kidney); assay: Effect of inhibitors and metallic cations on LAP activity (Leu-AMC); assay type: biochemical; conditions: for effect of inhibitor on pkLAP activity: Leu-AMC 5 mM
# [2] = system: T. rubrum secreted proteolytic activity; assay: Inhibition of T. rubrum secreted proteolytic activity (resorufin-labeled casein); assay type: biochemical, Trichophyton rubrum; conditions: T. rubrum culture medium, resorufin-labeled casein as substrate
# Description: The proteolytic activity was measured using resorufin-labeled casein in phosphate buffer (20 mM; pH 7.4). The reaction mixture contained 0.02% substrate in a total volume of 0.5 ml. After incubation at 37° C., the undigested substrate was precipitated by trichloroacetic add (4% final concentration) and separated from the supernatant by centrifugation. The absorbance at 574 nm of the supernatant was measured after alkalinization by adding 500 μl Tris buffer (500 mM; pH 9.4). For practical purposes, one unit (U) of proteolytic activity was defined as that producing an absorbance of 0.001 per min.
# T. rubrum was grown at 30° C. in a medium containing 0.2% soy protein as a sole carbon and nitrogen source. After 14 days of growth, a concomitant clarification of the culture medium was noted and a substantial proteolytic activity (400 U ml^−1) detected using resorufin-labeled casein as substrate. This proteolytic activity was 15% and 85% inhibited by PMSF and ortho-phenanthroline, respectively, attesting that serine and metalloproteases were secreted by T. rubrum. […] In addition, a high activity on substrates such as Leu-AMC and Leu-pNA was detected in the T. rubrum culture supernatant.
# ruLAP2 = ruLAP2 (Trichophyton rubrum, UniProt Q5QHG6); assay type: biochemical; conditions: for effect of inhibitor on ruLAP2 activity: Leu-AMC 5 mM
# ruLAP2, sequence (Q5QHG6 20-495): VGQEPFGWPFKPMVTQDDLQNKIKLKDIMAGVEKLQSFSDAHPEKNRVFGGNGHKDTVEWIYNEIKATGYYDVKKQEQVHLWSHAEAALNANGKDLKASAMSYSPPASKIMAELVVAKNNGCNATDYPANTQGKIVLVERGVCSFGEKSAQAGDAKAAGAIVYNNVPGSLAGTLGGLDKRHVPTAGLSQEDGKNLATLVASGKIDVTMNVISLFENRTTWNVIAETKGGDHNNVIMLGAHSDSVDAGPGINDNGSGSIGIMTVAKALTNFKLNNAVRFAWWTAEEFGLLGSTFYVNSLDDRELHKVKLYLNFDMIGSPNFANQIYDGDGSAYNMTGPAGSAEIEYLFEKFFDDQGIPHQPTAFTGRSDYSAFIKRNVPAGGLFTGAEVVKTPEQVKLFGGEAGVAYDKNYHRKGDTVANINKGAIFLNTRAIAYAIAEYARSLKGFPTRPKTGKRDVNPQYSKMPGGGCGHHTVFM
# fuLAP1 = fuLAP1 (Aspergillus fumigatus, UniProt Q5VJG6); assay: biochemical; assay type: biochemical; conditions: for effect of inhibitor on fuLAP1 activity: Leu-AMC 5 mM
# fuLAP1, sequence (Q5VJG6 16-388): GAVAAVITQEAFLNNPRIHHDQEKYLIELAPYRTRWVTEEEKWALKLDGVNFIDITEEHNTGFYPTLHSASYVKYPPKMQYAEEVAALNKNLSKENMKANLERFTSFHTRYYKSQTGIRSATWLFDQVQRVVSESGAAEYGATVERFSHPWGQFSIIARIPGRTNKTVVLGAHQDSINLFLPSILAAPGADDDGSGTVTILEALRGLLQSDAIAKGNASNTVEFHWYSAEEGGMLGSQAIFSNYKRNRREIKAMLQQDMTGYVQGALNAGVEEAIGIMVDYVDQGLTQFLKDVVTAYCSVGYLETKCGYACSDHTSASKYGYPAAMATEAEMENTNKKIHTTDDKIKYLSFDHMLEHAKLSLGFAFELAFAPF
# [3] = system: gliadin 33mer (fragment 57-89 of gliadin MM1); assay: Digestion of gliadin 33mer (RP-HPLC, ESI-MS); assay type: biochemical, wheat; conditions: 37° C.
# [4] = system: gliadin 14mer PQPQLPYPQPQLPY (fragment 82-95 of α/β gliadin AIV); assay type: biochemical, wheat; conditions: 4 h, 37° C.
# [5] = assay type: biochemical
# [6] = assay type: biochemical; conditions: substrate Lys(Abz)Pro-PropNA 5 mM, 37° C., 60 min
# [7] = inhibitor 40 μM, Leu-MCA substrate, 15 min pre-incubation
molecule,measurement,setting,value
O=S(=O)(F)Cc1ccccc1 [PMSF],effect of inhibitor on ruLAP1 activity,ruLAP1,no clear inhibitory effects
same,ruLAP1 activity as percentage of control reaction without inhibitor,ruLAP1; 40 µM,78%
same,effect of inhibitor on fuLAP2 activity,fuLAP2,no clear inhibitory effects
same,fuLAP2 activity as percentage of control reaction without inhibitor,fuLAP2; [7],84%
same,effect of inhibitor on pkLAP activity,[1],no clear inhibitory effects
same,pkLAP activity as percentage of control reaction without inhibitor,[1]; [7],58%
same,inhibition of proteolytic activity,[2],15%
same,effect of inhibitor on ruLAP2 activity,ruLAP2,no clear inhibitory effects
same,ruLAP2 activity as percentage of control reaction without inhibitor,ruLAP2; [7],79%
same,effect of inhibitor on fuLAP1 activity,fuLAP1,no clear inhibitory effects
same,fuLAP1 activity as percentage of control reaction without inhibitor,fuLAP1; [7],156%
"c1cnc2c(c1)ccc1cccnc12 [ortho-phenantroline, ortho-phenanthroline]",effect of inhibitor on ruLAP1 activity,ruLAP1; Leu-AMC 5 mM,totally inhibited
same,effect of inhibitor on fuLAP2 activity,fuLAP2,totally inhibited
same,effect of inhibitor on pkLAP activity,[1],totally inhibited
same,inhibition of proteolytic activity,[2],85%
same,effect of inhibitor on ruLAP2 activity,ruLAP2,totally inhibited
same,effect of inhibitor on fuLAP1 activity,fuLAP1,totally inhibited
ruDPPIV: T. rubrum dipeptidylpeptidase IV (SEQ ID NO: 35),"digestion of gliadin 33mer, enzyme alone",[3],not a substrate
same,"digestion of gliadin 14mer, enzyme alone",[4],not able to hydrolyse
"pkLAP: commercially available microsomal LAP from porcine kidney (MEROPS>M1 family), Sigma (protein, UniProt P15145 2-963, looked up) Aminopeptidase N: AKGFYISKALGILGILLGVAAVATIIALSVVYAQEKNKNAEHVPQAPTSPTITTTAAITLDQSKPWNRYRLPTTLLPDSYNVTLRPYLTPNADGLYIFKGKSIVRLLCQEPTDVIIIHSKKLNYTTQGHMVVLRGVGDSQVPEIDRTELVELTEYLVVHLKGSLQPGHMYEMESEFQGELADDLAGFYRSEYMEGNVKKVLATTQMQSTDARKSFPCFDEPAMKATFNITLIHPNNLTALSNMPPKGSSTPLAEDPNWSVTEFETTPVMSTYLLAYIVSEFQSVNETAQNGVLIRIWARPNAIAEGHGMYALNVTGPILNFFANHYNTSYPLPKSDQIALPDFNAGAMENWGLVTYRENALLFDPQSSSISNKERVVTVIAHELAHQWFGNLVTLAWWNDLWLNEGFASYVEYLGADHAEPTWNLKDLIVPGDVYRVMAVDALASSHPLTTPAEEVNTPAQISEMFDSISYSKGASVIRMLSNFLTEDLFKEGLASYLHAFAYQNTTYLDLWEHLQKAVDAQTSIRLPDTVRAIMDRWTLQMGFPVITVDTKTGNISQKHFLLDSESNVTRSSAFDYLWIVPISSIKNGVMQDHYWLRDVSQAQNDLFKTASDDWVLLNVNVTGYFQVNYDEDNWRMIQHQLQTNLSVIPVINRAQVIYDSFNLATAHMVPVTLALDNTLFLNGEKEYMPWQAALSSLSYFSLMFDRSEVYGPMKKYLRKQVEPLFQHFETLTKNWTERPENLMDQYSEINAISTACSNGLPQCENLAKTLFDQWMSDPENNPIHPNLRSTIYCNAIAQGGQDQWDFAWGQLQQAQLVNEADKLRSALACSNEVWLLNRYLGYTLNPDLIRKQDATSTINSIASNVIGQPLAWDFVQSNWKKLFQDYGGGSFSFSNLIQGVTRRFSSEFELQQLEQFKKNNMDVGFGSGTRALEQALEKTKANIKWVKENKEVVLNWFIEHS","digestion of gliadin 33mer, enzyme alone",[3],partial deletion of N-terminal Leu and C-terminal Phe
same,"digestion of gliadin 33mer, mixed with ruDPPIV",[3]; enzyme plus ruDPPIV (DPPIV),does not modify the profile
same,hydrolytic activity toward Ala-AMC,[5]; compared to Leu-AMC,extremely high efficiency
same,hydrolytic activity toward Arg-AMC,[5]; compared to Leu-AMC,extremely high efficiency
same,hydrolytic activity toward Ala-AMC in comparison to Leu-MCA used as a standard,"[5]; substrate Ala-AMC 5 mM, 37° C., 60 min",584.7%
same,hydrolytic activity toward Arg-AMC in comparison to Leu-MCA used as a standard,"[5]; substrate Arg-AMC 5 mM, 37° C., 60 min",174.8%
same,hydrolytic activity toward Asn-AMC in comparison to Leu-MCA used as a standard,"[5]; substrate Asn-AMC 5 mM, 37° C., 60 min",33.9%
same,hydrolytic activity toward Asp-AMC in comparison to Leu-MCA used as a standard,"[5]; substrate Asp-AMC 5 mM, 37° C., 60 min",0.9%
same,hydrolytic activity toward Cys-AMC in comparison to Leu-MCA used as a standard,"[5]; substrate Cys-AMC 5 mM, 37° C., 60 min",35.5%
same,hydrolytic activity toward Gln-AMC in comparison to Leu-MCA used as a standard,"[5]; substrate Gln-AMC 5 mM, 37° C., 60 min",50.7%
same,hydrolytic activity toward Glu-AMC in comparison to Leu-MCA used as a standard,"[5]; substrate Glu-AMC 5 mM, 37° C., 60 min",4.7%
same,hydrolytic activity toward Gly-AMC in comparison to Leu-MCA used as a standard,"[5]; substrate Gly-AMC 5 mM, 37° C., 60 min",74.8%
same,hydrolytic activity toward Gly-Pro-AMC in comparison to Leu-MCA used as a standard,"[5]; substrate Gly-Pro-AMC 5 mM, 37° C., 60 min",16.7%
same,hydrolytic activity toward His-AMC in comparison to Leu-MCA used as a standard,"[5]; substrate His-AMC 5 mM, 37° C., 60 min",17.6%
same,hydrolytic activity toward Hyp-AMC in comparison to Leu-MCA used as a standard,"[5]; substrate Hyp-AMC 5 mM, 37° C., 60 min",1.7%
same,hydrolytic activity toward Ile-AMC in comparison to Leu-MCA used as a standard,"[5]; substrate Ile-AMC 5 mM, 37° C., 60 min",6.3%
same,hydrolysis of Leu-AMC,[5]; substrate Leu-AMC,efficiently hydrolyzed; also recorded: common preference
same,hydrolytic activity toward Leu-AMC in comparison to Leu-MCA used as a standard,"[5]; substrate Leu-AMC 5 mM, 37° C., 60 min",100.0%
same,hydrolytic activity toward Lys-AMC in comparison to Leu-MCA used as a standard,"[5]; substrate Lys-AMC 5 mM, 37° C., 60 min",70.1%
same,hydrolytic activity toward Met-AMC in comparison to Leu-MCA used as a standard,"[5]; substrate Met-AMC 5 mM, 37° C., 60 min",46.1%
same,hydrolytic activity toward Phe-AMC in comparison to Leu-MCA used as a standard,"[5]; substrate Phe-AMC 5 mM, 37° C., 60 min",184.4%
same,hydrolytic activity toward Pro-AMC in comparison to Leu-MCA used as a standard,"[5]; substrate Pro-AMC 5 mM, 37° C., 60 min",7.9%
same,hydrolytic activity toward Pyr-AMC in comparison to Leu-MCA used as a standard,"[5]; substrate Pyr-AMC 5 mM, 37° C., 60 min",0.0%
same,hydrolytic activity toward Ser-AMC in comparison to Leu-MCA used as a standard,"[5]; substrate Ser-AMC 5 mM, 37° C., 60 min",24.6%
same,hydrolytic activity toward Thr-AMC in comparison to Leu-MCA used as a standard,"[5]; substrate Thr-AMC 5 mM, 37° C., 60 min",4.4%
same,hydrolytic activity toward Val-AMC in comparison to Leu-MCA used as a standard,"[5]; substrate Val-AMC 5 mM, 37° C., 60 min",4.0%
same,hydrolytic activity toward Lys(Abz)Pro-PropNA in comparison to Leu-MCA used as a standard,[6],0.0%
